The results in this text go back to patent US20050164339.

The target in data set [1] is T1, His6-LctA modified by LctM.
T1 chain: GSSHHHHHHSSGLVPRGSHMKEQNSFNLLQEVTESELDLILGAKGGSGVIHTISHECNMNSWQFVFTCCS

A further data set deals with T2, His6-LctA.
T2 chain: T1 chain

Another data set addresses T3, LctMutA.
T3 chain: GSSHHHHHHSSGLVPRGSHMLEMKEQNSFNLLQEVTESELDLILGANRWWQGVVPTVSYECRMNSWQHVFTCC

B1: Endoproteinase Lys-C from Lysobacter enzymogenes (protein)
chain: GVSGSCNIDVVCPEGNGHRDVIRSVAAYSKQGTMWCTGSLVNNSANDKKMYFLTANHCGMTTAAIASSMVVYWNYQNSTCRAPGSSSSGANGDGSLAQSQTGAVVRATNAASDFTLLELNTAANPAYNLFWAGWDRRDQNFAGATAIHHPNVAEKRISHSTVATEISGYNGATGTSHLHVFWQASGGVTEPGSSGSPIYSPEKRVLGQLHGGPSSCSATGADRSDYYGRVFTSWTGGGTSATRLSDWLDAAGTGAQFIDGLDSTGTPPV
As for B1, in data set [1], the “proteolytic cleavage (MALDI-MS)” value is “cleavage of the amide bond between Lys25 and Gly26 and removal of the leader sequence and the His6-tag”.

B2: GST-Lpd (protein)
chain: MKIVLQNNEQDCLLACYSMILGYFGRDVAIHELYSGEMIPPDGLSVSYLKNINMKHQVSMHVYKTDKKNSPNKIFYPKMLPVIIQWNDNHFVVVTKIYRKNVTLIDPAIGKVKYNYNDFMKKFSGYIITLSPNSSFTKKKRISEIIFPLK
With B2, the “proteolytic cleavage of the leader (MALDI-TOF MS; sensitivity of indicator strain L. lactis 117)” value in data set [1] was “Both unmodified and modified His-LctA were substrates for GST-Lpd”. In addition, in the data set with His6-LctA, the “proteolytic cleavage of the leader (MALDI-TOF MS)” value was “Both unmodified and modified His-LctA were substrates for GST-Lpd”. Moreover, the “removal of the leader peptide” value with LctMutA was “the protease domain of LctT can remove the leaser peptide and the His-tag”.
